Consider one molecule from patent publication US12630618 (GEORGIA TECH RESEARCH, dated 2026).

The assay addresses T1, human myocilin OLF (hMyoc-OLF), cleaved from its fusion tag (human, UniProt Q99972 244-503, limits assumed).
T1 construct: In Western blots the protein is denatured; also called hOLF; cleaved human myocilin OLF
T1 sequence: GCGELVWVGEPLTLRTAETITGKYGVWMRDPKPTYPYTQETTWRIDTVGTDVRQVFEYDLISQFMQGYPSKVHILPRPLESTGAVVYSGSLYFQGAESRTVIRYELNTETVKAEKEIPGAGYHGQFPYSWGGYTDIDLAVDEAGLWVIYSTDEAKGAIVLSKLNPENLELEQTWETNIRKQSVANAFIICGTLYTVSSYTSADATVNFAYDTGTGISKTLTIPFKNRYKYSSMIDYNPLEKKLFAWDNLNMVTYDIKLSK
Briefly: Western blot, denatured hMyoc-OLF, IgG. On the technique in general: Immunoblotting shows a protein as a band on a membrane.

B1: Monoclonal Antibody OLF2 (antibody, V domains shown)
VH: DVKLVESGGGLVKPGGSLKLSCAASGFTFSSYAMSWVRQTPDKRLEWVATISSGGSYTYYPDSVKGRFTISRDNAKNTLYLQMSSLKSEDTAMYYCARLGGGIFAYWGQGTLVTVSA
VL: DVLMTQTPLSLPVSLGDQASISCRSSQSIVHSNGNTYLEWYLQKPGQSPKLLIYKVSNRFSGVPDRFSGSGSGTDFTLKISRVEAEDLGVYYCFQGSHVPLTFGAGTKLEIKR
notes: also called anti-OLF2
Regarding B1, the binding result is reported as “binds”.
